{"source": "paper doi:10.1101/085266", "key": {"[1]": {"biological_target": "Streptomyces sp. AA4 hemerythrin cargo with C-terminal His6 tag (Streptomyces sp. AA4)", "assay": "SEC"}, "[2]": {"biological_target": "Kuenenia stuttgartiensis encapsulin without the N-terminal cytochrome domain (Kuenenia stuttgartiensis) (UniProt Q1Q6L7)", "assay": "co-purification with encapsulin capsids"}, "[3]": {"biological_target": "Bacillaceae bacterium MTCC 10057 encapsulin capsid protein (Bacillaceae bacterium MTCC 10057)", "assay": "co-purification with encapsulin capsids"}, "[4]": {"biological_target": "Bacillaceae bacterium MTCC 10057 Geobac cargo protein with C-terminal His6 tag (Bacillaceae bacterium MTCC 10057)", "assay": "SEC"}, "[5]": {"biological_target": "Streptomyces sp. AA4 encapsulin capsid protein (Streptomyces sp. AA4)", "assay": "co-purification with encapsulin capsids"}}}
{"substance": "Streptomyces sp. AA4 hemerythrin cargo with C-terminal His6 tag (natural protein)", "values": [{"measurement": "stoichiometry N", "setting": "[1]", "value": 2}]}
{"substance": "NIR domain (N-terminal cupredoxin domain) of the Kuenenia stuttgartiensis NIR-HAO fusion protein (domain or fragment)", "values": [{"measurement": "copies of cargo per 180mer capsid (copies per 180mer capsid)", "setting": "[2]", "value": 15}]}
{"substance": "Bacillaceae bacterium MTCC 10057 Ferredoxin cargo (Fer), with N-terminal targeting peptide (natural protein)", "values": [{"measurement": "molecules of cargo per 180 subunit capsid (molecules per 180 subunit capsid)", "setting": "[3]", "value": 10}]}
{"substance": "Bacillaceae bacterium MTCC 10057 Geobac cargo protein with C-terminal His6 tag (natural protein)", "values": [{"measurement": "stoichiometry N", "setting": "[4]", "value": 2}]}
{"substance": "Bacillaceae bacterium MTCC 10057 Geobac cargo protein, with C-terminal targeting peptide (natural protein)", "values": [{"measurement": "molecules of cargo per 180 subunit capsid (molecules per 180 subunit capsid)", "setting": "[3]", "value": 150}]}
{"substance": "Streptomyces sp. AA4 hemerythrin cargo (Heme), with C-terminal targeting peptide (natural protein)", "values": [{"measurement": "molecules of cargo per 60 subunit capsid (molecules per 60 subunit capsid)", "setting": "[5]", "value": 20}]}
